Data on 19 sequences can be found in the DeepSol protein solubility set.

The nature of this data set: soluble on expression in E. coli; label from the status in PepcDB or PDB records.
As for “MGSDKIHHHHHHTSCIEDEKDYSQIIETRVANCETSKDFSVPVKEGYTTFVTSGEDTLAMANEPITIRIPKNATISTRAEGDGINISYTILDEGSETTYAKVWQAIMFEDTQNGDYDYNDLIIHVKNTASNHAYQHPTETWQTIEIQPIALGSTKTIKLGCILSDGSTHMISDDVRTDLFGGRQGFINTVNDNDPIRYKLASTNIKNYAMPKKEKTSAAWVAWFIEVDGKRMYAASSDIDYKSYDMVNKENMPYGLAVSNGNGTFSYPQEKNSLFETYPGFSDWINGKVSSIGSFQKELVYKYCSGGIIGEDGKSHKIWDYLDLN”, the “soluble on expression in E. coli” value is on record as “not soluble”.
The result for “MDSRTKGKTVMEVGGDGVAVITLINPPVNSLSFDVLYNLKSNYEEALSRNDVKAIVITGAKGRFSGGFDISGFGEMQKGNVKEPKAGYISIDIITDLLEAARKPSVAAIDGLALGGGLELAMACHARISAPAAQLGLPELQLGVIPGFGGTQRLPRLVGLTKALEMILTSKPVKAEEGHSLGLIDAVVPPAELVTTARRWALDIVGRRKPWVSSVSKTDKLPPLGEAREILTFAKAQTLKRAPNMKHPLMCLDAIEVGIVSGPRAGLEKEAEVASQVVKLDTTKGLIHVFFSQRGTAKVPGVTDRGLVPRKIKKVAIIGGGLMGSGIATALILSNYPVILKEVNEKFLEAGIGRVKANLQSRVRKGSMSQEKFEKTMSLLKGSLDYESFRDVDMVIEAVIENISLKQQIFADLEKYCPQHCILASNTSTIDLNKIGERTKSQDRIVGAHFFSPAHIMPLLEIVRTNHTSAQVIVDLLDVGKKIKKTPVVVGNCTGFAVNRMFFPYTQAAMFLVECGADPYLIDRAISKFGMPMGPFRLCDLVGFGVAIATATQFIENFSERTYKSMIIPLMQEDKRAGEATRKGFYLYDDKRKAKPDPELKKYIEKARSISGVKLDPKLANLSEKDIIEMTFFPVVNEACRVFAEGIAVKAADLDIAGIMGMGFPPYRGGIMFWADSIGSKYIYSRLDEWSKAYGEFFKPCAFLAERGSKGVLLSAPVKQASSRL” reads “soluble”; that for “MLDVHPSGFYAWLQQPHSQRHQADLRLTGQIKQFWLESGCVYGYRKIHLDLRDSGQQCGVNRVWRLMKRVGIKAQVGYRSPRARKGEASIVSPNRLQRQFNPDAPDERWVTDITYIRTHEGWLYLAVVVDLFSRKIIGWSMQSRMTKDIVLNALLMAVWRRNPEKQVLVHSDQGSQYTSHEWQSFLKSHGLEG”, “not soluble”.
On to “MKRTIQETPGPSSTTVPPPKKLNSQRNGSNLEPGSIYFTPIGGISVPRQESESSRSLDEILADIRPINSLHFSFMLDFEFLIGSYPPSLREYPITLVVGAPDAPDLLKCTKNQKLVTVVGASLPIPFGTHHTKMSILEDEDGRFHVIVSTANLVPDDWEFKTQQFYYNFGVKIASGTVPRSDFQDDLLEYLSMYRNQLDTWKQLLQKVDFSQISDRLIFSTPGYHTDPPTQRPGHPRLFRILSEKFPFDASYEHTERCTFVAQCSSIGSLGSAPINWFRGQFLQSLEGANPSPKQKPAKMYLVFPSVEDVRTSCQGYAGGCSVPYRNSVHARQKWLQGNMCKWRSNAKRRTNAVPHCKTYVKYDKKVAIWQLLTSANLSKAAWGEVSFNKSKNVEQLMIRSWEMGVLITDPSRFNIPFDYPLVPYSATDEPFVTDKKHEKPDILGCIWTPP”, for which the “soluble on expression in E. coli” value is “not soluble”.
With “PRKASRKPPREESSATCVLEQPGALGAQILLVQRPNSGLLAGLWEFPSVTWEPSEQLQRKALLQELQRWAGPLPATHLRHLGEVVHTFSHIKLTYQVYGLALEGQTPVTTVPPGARWLTQEEFHTAAVSTAMKKVFRVYQGQ”, the “soluble on expression in E. coli” value is listed as “soluble”.
Consider “GAQVSSQKVGAHENSNRAYGGSTINYTTINYYKDSASNAASKQDYSQDPSKFTEPLKDVLIKTAPALN”, for which the “soluble on expression in E. coli” value is “soluble”.
The entry for “MNDNEIGNPPIKALIVFRENGDTDNLFVPILCDAIRTTGIDVRCSTNEFWNSDTPYDIIHFQWPEEVMEGNCDDPDRICRLKECIAFFRSRGARFVYTRHNVRPHDANEVIGRAYDIIEEQSDVVVHMGRYSLDEFAAKHADSRNVIIPHPIYQYTYKEDISVERARQYLNLPQEAFIVTSFGKFRNREERRMVTGAFRKWDEAKKFLLAPRLYPFSRFNRYGSNFFKRWTSRAGYYLLIPLLNRLRRMHAGASDEPIDNCDLPYYMAASDVIFIQRKDILNSASIPLAFLFHKVVIGPNIGNIGEILQDTGNPVFHPDNQFDIIRALEAARQLSARRKGEDNYAYAIENMNSGKIGKEYAELYRNLANLSL” is “not soluble”; for “MVEEFKVTPWEVEGVVDYDKLIKHFGTSPLTEDLLEKTAELTKSELPIFFRRKFFFSHRDYDLILKDYEEGRGFFLYTGRGPSGPMHIGHIIPFFATKWLQEKFGVNLYIQITDDEKFLFKENLTFDDTKRWAYDNILDIIAVGFDPDKTFIFQNSEFTKIYEMAIPIAKKINFSMAKAVFGFTEQSKIGMIFFPAIQIAPTFFERKRCLIPAAIDQDPYWRLQRDFAESLGYYKTAALHSKFVPSLTSLSGKMSASKPETAIYLTDSPEDVEKKVWKFTLTGGRPTLKEQREKGGEPEKCVVFKWLEIFFEEDDKKLKERYYACKNGELTCGECKRYLISKIQEFLKEHQRRRKKAEKLVEKFKYTGKLAQEMWNEAIPEPLKRSHHHHHH” it is “soluble”.
For the sequence “MTTVRIPAGWPATEEEARAVQDELRGRVILDEPGPPPGTGRVTGVDVAYDDERDVVVAAAVVLDAATLDVVAEATAVGEVSFPYVPGLLAFREIPTVLAALDALPCPPGLIVCDGYGVAHPRRFGLASHLGVLTGLPTIGVAKNPFTFSYEDPGAPRGSAAPLLAGADEVGRALRTQSGVKPVFVSVGHRVDLDHACAHTLALTPKYRIPETTRRADSLCRRALKEATALEHHHHHH”, the “soluble on expression in E. coli” value is listed as “soluble”.
“MGSDKIHHHHHHMNILIVYGTTEGQTGKIAARTATHLRERGHQVELRDSAALASDLKLGHFDAFVIAASVHQEHHQETVTNFVFAHHEALSTKPSALISVSLSAALGDQKKDAQKYVDRFVSVTDWQPSMTLLLGGALRFNKYDYFQEQFVKFVVMKSGDPSPERDHEFTDWNALANFADRFLETAG”: the “soluble on expression in E. coli” value is on record as “not soluble”.
As to “MKGVRSMMGNLVITIGRECGSAGRLIGQKLAADLGVKCYDKELLTLAAKNSGLCEELFKTHDEKPTSSFLYSLVMDTYSLGYNTSAYMDMPINHKIFLAQFDTIKKLAEEESCVIVGRCADYALADYPNTVSVFICGDEEDKIRHLMERHNVDEAKAKDIMIKTDKRRASYYNYYSSKRWGSCKSYDMCISSSAVGYDGAVDIIKEFAKKKQEFLKTKNYK”, the “soluble on expression in E. coli” value is “not soluble”.
The entry for “MSLDRNLYEDTFVVFDVETTGLSAVYDTIIELAAVKIKGGEIVDRFESFANPHHALSQTTIDLTGITDDMVNDAPEVADVLKDFHTWMGNDILVAHNASFDMGFLNQGFQRIDYEKASNPVVDTLELARFLLPELRNHRLNTLCKHLDIELTQHHRAIYDAEATGYLLWKLVQRLVEKEISNHEGHHHHHH” is “soluble”.
As for “MGSDKIHHHHHHMKKEKVEERIREILRPGWDLLTEEAMLYSATVGGKRIRPLLVLTLGEDLGVEEEKLLDVAVAVELFHTASLIHDDLPPIDNADFRRGKPSCHRTYGEDIALLAGDGLFFLAFSQISKIGNSKIFEEFSETAYKLLLGEAMDVEFERRKMEVSQEMVERMYAFKTGALFAFCFSAPFILKGKDHTKMKLLGEKFGVAFQIYDDLKDILGSFEKVGKDLGKDTEKVTLVKKVGIQKAREMADKYYEEVLKGIESEGLFRTLFLLKELKQMVEER”, the “soluble on expression in E. coli” value is recorded as “soluble”.
As for “MAHHHHHHMSLPIMSVVRMAVQELPLLSFAPTSLVSDGCVFLPTLSDCSAFAGCSITSATLQCDGTLLIKVVPAILRLIPLKGISSSHGYSSLAAGGSHSEAVALLKGLPTVRLQAVSPVFPLFTPGGCVEYFSATSQQTTAAVPVLTNTIREHLRRLRAYVPQHLDELVPSAPSKVSSWFVVSYPGADAVPEPCLFVLPDVLVVRTVMSQVGSRKIPPHHKRSVAVMGQSGVAKLLEELKWSGCAVRVVDDANHVCVLPPTLTAASQMKQVTH”, the “soluble on expression in E. coli” value is “soluble”.
The result for “MEKYPEIQQMRSKMREGDDTNEFKIRPLKGLSHPSGNLQMQRFQEDRRERIHSIRKRENQDGRLDLIGVVGEITVVIDDVVYEEEKLRKVVFTMKG” reads “not soluble”.
With “ASTLGFKARIHMSHDATDWKINKLLQNGVEVKIYDDNFSNAVAAARVSSQRDPYSYFIDDEGSKLLFAGYATAGERVKKQLSKMQIEVSKEHPLVVYLPAGVGGSPSGVAFGLKLQFADAVIPIFVEPTHMPSVLLGMASGLNHDISVYDIGIDGKTAADGLAVGRPSMIAGKYMKDKLFGIATVSDSDMFAYQGMLKKLENIEVEPSAAVGIRGLIQSKEISEIPDSATHMVWATGGSMVPKNTMHKYEDKAVRIFNTWKS”, the “soluble on expression in E. coli” value is recorded as “not soluble”.
The entry for “MSLKEVAAKTGIGTLPEWNLGDLYMGIDAPEIAHDLAKMDAECVAFETDYKGKLAEHVARDDGGEWLAAAVRRYEAIDDLAGRLGSFAGLAHAGDSVDPAISKFYGDISERLTAASTHLLFFPLELNRIDDAVIERAMETPALGHYRPWIEDLRKDKPYQLEDRVEQLFHEKSQTGYSAWNRLFDQTIAGLRFQVGGKELAIEPTLNFLQDRDGAKRKAAAEALAKTFKANERTFALITNTLAKDKDISDRWRGFQDVADSRHLNNRVEREVVDALVASVRAAYPKLSHRYYQLKARWFKKKKLAHWDRNAPLPFAANATIAWPDAKNMVLTAYRGFSPEMADIAQRFFDQSWIDAPVRPGKAPGAFSHPTTPSAHPYVLMNYQGKPRDVMTLAHELGHGVHQVLAARQGALMAPTPLTLAETASVFGEMLTFKRLLSETRDAKQRQALLAGKVEDMINTVVRQIAFYSFERAVHTERKNGELTAERLGQIWLSVQTESLGEAIEIKPGYENFWMYIPHFIHSPFYVYAYAFGDCLVNSLYAVYEHAAEGFAERYLAMLAAGGTKHYSELLAPFGLDAKDPKFWDGGLSVIAGMIDELERMGEGHHHHHH” is “soluble”; for “QTEVQKLTNAKAIITYLAEKFPLCFVLEGEAKPLKIGLFQDLAEALQDDERVSKTQLRQALRQYTSNWRYLYGCREGAVRVDLQGNPAGVLDAEHVAHAAQQLAEAKARFAEKRKQKLQLKKHNKKSIRVNLRIKTLKKRV” it is “not soluble”.
With “MSLKNGLRIYALGGISEIGRNMTVFEYNNRLLIVDCGVLFPSSGEPGVDLILPDFGPIENKLDKVDALVITHGHEDHIGAIPWLLKLRPDMPILASKFTMALIAAKCREHRQRPKLIEVNEKSDINRGPFNIRFWAVNHSIPDCLGVAIKTGAGLVIHTGDVKLDQTPPDGRPTDLPALSRFGDEGVDLLLCESTNATVPGFSGSEADVAPTLKRLISDAKQRVILASFASNVYRVQAAVDAAVAAGRKVAFNGRSMIRNMEIAEKMGYLKAPRGTIVSMDDAAKMAPHKVVLITTGTQGEPMAALSRMARREHRQITVRDGDLIILSSSLVPGNEEAVFGVMNMLSQIGATVVTGRDAKVHTSGHGFAGELLFLYNAARPKNVMPVHGEWRHLRANKELAISTGVEADRVVLAQNGVVVDLVDGRARVVGQMQVGHLYVDGVTMGDIDAEVLEERTSLGEGGLIAITAVIDSRTARLLERPTVQAKGFSEDAVAMMPEVTELVEKTMNDLAAEGENDPYRMVQQLRRRVSRFVEQKWRRKPMIMPTVIPTTSATIDIDDADVRASREGHHHHHH”, the “soluble on expression in E. coli” value is recorded as “soluble”.
